Experimental data taken from article PMC4134300, “Biochemical Characterization of Two Thermostable Xylanolytic Enzymes Encoded by a Gene Cluster of Caldicellulosiruptor owensensis” (PLoS ONE, 2014).

Substrate: O=[N+]([O-])c1ccc(O[C@@H]2OC[C@@H](O)[C@H](O)[C@H]2O)cc1
Test: purified protein
Format: biochemical, Caldicellulosiruptor owensensis
Details: 50 mM sodium citrate, 150 mM NaCl, pH 5.0, 75 °C, 0.05 to 2.4 mM pNPX

B1: Coxyl A (Caldicellulosiruptor owensensis OL) (protein)
chain: MKIELYPEKTSGKINKFWTKCVGSCHAATALREDWRRQLRKCRQELGFEYLRCHGWLNDDMSVCFRNEDGKLWFSFFNIDTIIDFLLDIGMKPFIELSFMPEALASGTKTVFHYKGNITPPKSYEEWGQLVEELARHLVKRYGKNEVKEWFFEVWNEPNLKDFFWAGTMEEYFELYKHAAFAIKKVDPDLKVGGPASAIDAWIPELKEFCEKNNVPIDFISTHQYPTDLAFSTSSNMEEAMAKAKRGELADRVKKAIEEASPLPVYYTEWNNSPSPRDPYHDIPYDAAFIVKTIIDIVDLPLGCYSYWTFTDIFEECGQSSLPFHGGFGLLNIHGIPKPSYRAFQILDKLNGEKINAEAEDISPTIDFIATKNNNEIVLIISNHNVPLSPIENENILVTVNGLKGCKEISIERIDEYNANPKRKWVEMGSPEYLNKDQIEELIEASKPKKEVVSWRITGDNQLAFELNILPHSVLGVTIKTE
notes: His-tagged in pET-28b(+), E. coli BL21(DE3); homodimer
- Km: 1600 ± 100 µM
- Vmax: 3930 µmol/min/mg
- kcat: 3630 ± 122 s⁻¹
